Source: the nanobody polyreactivity screen of Harvey et al. (2022)

Experiment: yeast display, Sf9 membrane polyspecificity reagent, FACS + sequencing; frameworks hold sequencing errors
Outline: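 Synthetic nanobody libraries on Saccharomyces cerevisiae BJ5465 were galactose-induced for 36–48 hours, stained 1 hour at 4 °C with 10% biotinylated, detergent-solubilized Sf9 membrane reagent and enriched on streptavidin microbeads. FACS then separated cells into low and high (top ~1%) gates by anti-HA (expression) and streptavidin (reagent binding) fluorescence. Genes were colony-PCR amplified, MiSeq 2 × 250 sequenced and CDR-length filtered. A clone's polyreactivity label is that of its gate of origin.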

Sequence	polyreactivity (PSR sort gate)
QVQLVESGGGLVQAGGSLRLSCAASGRTFRLYAMGWYRQAPGKERELVASISRSVGSTYYADSVKGRFTISRDNAKNTVYLQMNSLKPVDTAVYYCAARSYIPGGWYGAYYYWGQGTQVTVSS	high polyreactivity
QVQLVESGGGLVQAGGSLRLSCAASGRTFRNNAMGWYRQAPGKERELVAAITSGGSTNYADSVKGRFTISRDNAKNTVYLQMNSLKPEDTAVYYCAKDFWYVTGGWSSGMDYWGQGTQVTVSS	low polyreactivity
QVQLVESGGGLVQAGGSLRLSCAASGRTFRNYAMGWYRQAPGKERELVAAISASGGSTYYADSVKGRFTISRDNAKNTVYLQMNSLKPEDTAVYYCAARYQGFGYRKYDYWGQGTQVTVSS	high polyreactivity
QVQLVESGGGLVQAGGSLRLSCAASGRTFRPYALGGYRPAPGKERELVAVITSGGSTYYADSVKGRFTISRDNAKNTVYLQMNSLKPEDTAVYYCARVYRSYAWSGYDYWGQGTQVTVSS	high polyreactivity
QVQLVESGGGLVQAGGSLRLSCAASGRTFRPYAMGWYRQAPGKEREFVARITWSGGTTYYADSVKGRFTISRDNAKNTVYLQMNRLKPEDTAVYYCAARVSRQTPVISYNYWGQGTQVTVSS	low polyreactivity
QVQLVESGGGLVQAGGSLRLSCAASGRTFRPYAMGWYRQAPGKERELDAAIDSSGTSTYYADSVKGRFTISRDNAKNTVYLQMNSLKPEDTAVYYCAKAWPDHWFSRYDYWGQGTQVTVSS	low polyreactivity
QVQLVESGGGLVQAGGSLRLSCAASGRTFRPYAMGWYRQAPGKERELVAAIDSSGTSTYYADSVKGRFTISRDNAKNTVYLKMNSLKPEDTAVYYCAKAWPDHWYSRYDYWGQGTQVTVSS	low polyreactivity
QVQLVESGGGLVQAGGSLRLSCAASGRTFRRNAMGWYRQAPGKERELVAAISFSAGRTYYADSVKGRFTISRDNAKNTVYLQMNSLKPEDTAVYYCNALRQDTGHYPYDYWGQGTQVTVSS	low polyreactivity
QVQLVESGGGLVQAGGSLRLSCAASGRTFRRNAMGWYRQAPGKERELVAAISWSGSRTYYADSVKGRFTISRDNAKKTVYLQMNSLKPEDTAVYYCAAEVWSTQGSATVQYDYLGQGTQVTVSS	high polyreactivity
QVQLVESGGGLVQAGGSLRLSCAASGRTFRRNAMGWYRQAPGKERELVASITGTGSTTYYADSVKGRFTISRDNAKNTVYLQMNSLKPEDTAVYYCAASSKYQDYWGQGTQVTVSS	high polyreactivity
QVQLVESGGGLVQAGGSLRLSCAASGRTFRRYAMGWYRQAPGKERELVAAITGAGSTYYADSVKGRFTISRDNAKNTVYFQMNSLKPEDTAVYYCAATPDPPHSYEYWGQGTKVTVSS	low polyreactivity
QVQLVESGGGLVQAGGSLRLSCAASGRTFRRYAMGWYRQAPGKERELVAAITYRGGSTYYADSVKGRFTISRDNAKNTVYLQMNSLKPEDTAVYYCNKQGNGQLGTTQGRYDYWGQGTQVTVSS	high polyreactivity
QVQLVESGGGLVQAGGSLRLSCAASGRTFRRYAMGWYRQAPGKERELVAVISGGGTYYADSVKGRFTISRDNAKNTVYLQMNSLKPEDTAVYYCATDSYSSLYGYDYWGQGTQVTVSS	high polyreactivity
QVQLVESGGGLVQAGGSLRLSCAASGRTFRRYAMGWYRQAPGKERELVAVISRGGSTHYADSVKGRFTISRDNAKNTVYLQMNSLKPEDTAVYYCNAVVSVYTQDLDYWGQGTQVTVSS	high polyreactivity
QVQLVESGGGLVQAGGSLRLSCAASGRTFRRYVMGRYRQAPGKEMEMVARITTSGGNTYYADSVKGRFTISRDNAKITVYLQMNSMKPEVTAVYYCAADFLRTYKEYNLGYWGQGTQVTVSS	low polyreactivity
QVQLVESGGGLVQAGGSLRLSCAASGRTFRSYAMGWSRQAPGKGRELVAAISRSGGTTTYADSVKGRFTISRDNAKNTVYLQMNSLKPEDTAVYYCARGQNRYWQFHGAYDYWGQGTQVTVSS	high polyreactivity
QVQLVESGGGLVQAGGSLRLSCAASGRTFRSYDMGWYRQAPGKERELVAAISKRGGNTYYADSVKGRFTISRDNAKNTVYLQMNSLKPEDTAVYYCAKRVSGSPPTAGSLSDSWGQGTQVTVSS	high polyreactivity
QVQLVESGGGLVQAGGSLRLSCAASGRTFRTNAIGWYRQATGKERELVAAIRASTGSTYYADSVKGRFTISRDNAKNSVYLQMNSLKPEDTAFYYCAARLRRGLTATWYYYWGQGTQVTVSS	high polyreactivity
QVQLVESGGGLVQAGGSLRLSCAASGRTFRTNAMGWYRQAPGKERELVAAISTGGGIANYADSVKGRCTISRDNAKNTVYLQMNSLKPEDTAVYYCNADIYTWFQIGGYQYDYWGQGTQVTVSS	low polyreactivity
QVQLVESGGGLVQAGGSLRLSCAASGRTFRTNTMGWYRQAPGKERELVAAIRYIGGSTYYADSVKGRFTISRDNAKNTFYLLMNSLKPEDTAVYYCAAYRYGSRYGYEYWGQGTQVTVSS	high polyreactivity
QVQLVESGGGLVQAGGSLRLSCAASGRTFRVNAMGWYRQAPGKERELVAAITWRGGSTYYADSVKGRFTISRDNAKNTVYLQMNSLKPEDTAVYYCAARYSSSSRRQKSDYWGQGTQVTVSS	high polyreactivity

Sequence	polyreactivity (PSR sort gate)
QVQLVESGGGLVQAGGSLRLSCAASGRTFRVYAMGWDRQAPGKERELVAAISGRGGSTYYADSVKGRFSISRDNAMNTVYLQMNSLKPEDTAVDYCAKSNPYLRLGEGNYWGQGTQVTVSS	high polyreactivity
QVQLVESGGGLVQAGGSLRLSCAASGRTFRVYAMGWYRQAPGKEREFVAAISYSGGRTNYADSVKGRFTISRDNAKNTVYLQMNSLKPEDTAVYYCARTKQEYTFGQFYLGDYWGQGTQVTVSS	low polyreactivity
QVQLVESGGGLVQAGGSLRLSCAASGRTFRVYTMGWYRQAPGKERELVAAISSRGGSTYYADSVKGRFTISRDNAKNTVYLQMNSLKPEDTAVYYCAAVSYYPARYGYWGQGTQVTVSS	high polyreactivity
QVQLVESGGGLVQAGGSLRLSCAASGRTFRWYAMGWDRQAPGKERELVAAISQSGGSTYYADSVKGRFTISRDNAKNTVYLQMNSLKPEDTAVYYCNAYPPYGGYAYGRGDYWGQGTQVTVSS	high polyreactivity
QVQLVESGGGLVQAGGSLRLSCAASGRTFRWYAMGWYRQAPGKERELVAAISSSGTRTYYADSVKGRFTISRDNAKNTVYLQMNSLKPEDTAVYYCAATWRVGYDYWGQGTQVTVSS	high polyreactivity
QVQLVESGGGLVQAGGSLRLSCAASGRTFRWYAMGWYRQAPGKERELVASITWSGGSTYYADSVKGRFTISRDNAKNTVYLQMNSLKPEDTAVYYCAARDRRGAYYYWGQGTQVTVSS	high polyreactivity
QVQLVESGGGLVQAGGSLRLSCAASGRTFRWYAMGWYRQAPGKESELVASISRGGSTSYADSVKGRFTISRDNAKNTVYLQMNSLKPEDTAVYYCAAGGFARTISYYWGQGTQVTVSS	high polyreactivity
QVQLVESGGGLVQAGGSLRLSCAASGRTFRWYTMGWYRQAPGKEREFVAAITWSGSSTDYADSVKGRFTISRDNAKNTVYLQMNSLKPEDTAVYYCAAENRRSRDDYWGQGTQVTVSS	high polyreactivity
QVQLVESGGGLVQAGGSLRLSCAASGRTFRYNAMGWYLQAPGKERELVAAITRRDGRTYYADSVKGRFTISRDNAKNTVYLQMNSLKPEDTAVYYCGVEYWVVNAQGYDYWGQGTQVTVSS	high polyreactivity
QVQLVESGGGLVQAGGSLRLSCAASGRTFRYNAMGWYRQAPGKERELVAAINWNGGSTYYADSVKGRFTISRDNAKNTVYLQMNSLKPEDTAVYYCAAYPGHGVTYWDRYYYWGQGTQVTVSS	high polyreactivity
QVQLVESGGGLVQAGGSLRLSCAASGRTFRYNAMGWYRQAPGKERELVAAISRSGGRTYYADSVKGRFTISRDNAKNTVYLQMNSLKPEDTAVYYCAAYYYTAGDSSSRYDYWGQGTQVTVSS	high polyreactivity
QVQLVESGGGLVQAGGSLRLSCAASGRTFRYNAMGWYRQAPGKERELVAVINSNGGSTYYADSVKGRFTISRDNAKNTVYLQMNSLKPEDTAVYYCAADYLRIQEYDYWGQGTQVTVSS	low polyreactivity
QVQLVESGGGLVQAGGSLRLSCAASGRTFRYNDRGWYRQAPGKERELVASISRISGSTYYADSVKGRFTISRDNAKNTVYLQMNSLKAEVTAVFYCAATVKLKQYPYFGFGYWGQGTQVTVSS	high polyreactivity
QVQLVESGGGLVQAGGSLRLSCAASGRTFRYNTMGWYRQAPGKERELVASISSGDRTYYADSVKGRFTISRDNAKNTVYLQMNSLKPEDTAVYYCAKDVGYWYYYWGQGTQVTVSS	high polyreactivity
QVQLVESGGGLVQAGGSLRLSCAASGRTFRYYALGWYRQAPGKERELVASITGSGGSTTYADSVKGRFTISRDNAKNTVYLLMNSLKPEDTAVYYCAVRYPYYSYRAKLGYWGQGTQVTVSS	high polyreactivity
QVQLVESGGGLVQAGGSLRLSCAASGRTFRYYAMGRSRQAPGTERELVAAISRSGGRTNYADSVKGRFTISRDNAKNTVYLQMNSLIPEDTAVDYCAADFRYTFDSWGQGTQVTVSS	high polyreactivity
QVQLVESGGGLVQAGGSLRLSCAASGRTFRYYAMGWYRQAPGKEREFVAAITKRGGSTYYADSVKGRFTISRDNAKNTVYLQMNSLKPEDTAVYYCAAYPAAQFSTFSYDSWGQGTQVTVSS	high polyreactivity
QVQLVESGGGLVQAGGSLRLSCAASGRTFRYYAMGWYRQAPGKERELVAAIDTSSGSTYYADSVKGRFTISRDYAKNTVYLQMNSLKPEDTAVYYCNANWWIPLIYDYWGQGTQVTVSS	low polyreactivity
QVQLVESGGGLVQAGGSLRLSCAASGRTFRYYAMGWYRQAPGKERELVAAISSRGNTYYADSVKGRFTISRDNAKNTVYLQLNSLKPEDTAVYYCAAYVYRVQYDFVYWGQGTQVTVSS	high polyreactivity
QVQLVESGGGLVQAGGSLRLSCAASGRTFRYYAMGWYRQAPGKERELVAAITGSGGSTYYADSVKGRFTISRDTAKNTVYLQMNSLKPEDTAVYYCATRWALRWRGGYWGQGTQVTVSS	high polyreactivity
